Drawing on US9950027, this text covers EC50 (nM), cAMP production (HTRF), Max efficacy in % of control peptide (cAMP production, HTRF) (% of control peptide) and agonist activity, % of the max response of Trp-Lys-Tyr-Met-Val-Met (SEQ ID NO: 114) for five molecules.

Side-chain parts run from the residue outwards. [ ]: non-standard residue; d: D form.

Assay in all cases: cell-based or functional assay
The target of assay [1] is human GLP-2 receptor (human) (UniProt O95838).
Assay [2] concerns the target human GLP-1 receptor (human) (UniProt P43220).
For assay [3], the target named is recombinant human type 2 Formyl peptide receptor (FPR2) (human) (UniProt P25090).
Chain of recombinant human type 2 Formyl peptide receptor (FPR2) (human) (P25090 whole entry): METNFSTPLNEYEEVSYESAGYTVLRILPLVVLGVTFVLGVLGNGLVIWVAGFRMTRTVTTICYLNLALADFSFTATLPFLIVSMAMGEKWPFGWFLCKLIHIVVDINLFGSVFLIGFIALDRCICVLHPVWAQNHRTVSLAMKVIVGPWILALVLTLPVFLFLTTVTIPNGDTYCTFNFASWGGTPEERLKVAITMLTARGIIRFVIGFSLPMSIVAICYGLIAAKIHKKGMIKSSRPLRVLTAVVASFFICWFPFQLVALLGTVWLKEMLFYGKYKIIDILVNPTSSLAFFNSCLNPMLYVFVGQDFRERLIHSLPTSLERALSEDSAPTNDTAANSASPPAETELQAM

Chain of human GLP-2 receptor (human) (O95838 whole entry): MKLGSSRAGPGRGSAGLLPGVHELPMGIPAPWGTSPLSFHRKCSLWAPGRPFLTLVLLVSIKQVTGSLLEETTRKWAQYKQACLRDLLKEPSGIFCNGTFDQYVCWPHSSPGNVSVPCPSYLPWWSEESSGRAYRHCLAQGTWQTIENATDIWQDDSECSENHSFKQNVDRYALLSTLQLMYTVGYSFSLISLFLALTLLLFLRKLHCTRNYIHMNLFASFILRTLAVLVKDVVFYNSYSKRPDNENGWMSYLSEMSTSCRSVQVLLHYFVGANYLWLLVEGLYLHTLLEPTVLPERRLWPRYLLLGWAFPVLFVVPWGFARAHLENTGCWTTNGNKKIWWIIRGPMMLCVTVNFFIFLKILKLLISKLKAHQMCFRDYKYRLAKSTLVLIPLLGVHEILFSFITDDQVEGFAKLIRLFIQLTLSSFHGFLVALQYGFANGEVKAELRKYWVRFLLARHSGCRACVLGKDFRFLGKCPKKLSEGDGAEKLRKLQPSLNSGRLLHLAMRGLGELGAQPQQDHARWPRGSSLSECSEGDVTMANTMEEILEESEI
Chain of human GLP-1 receptor (human) (P43220 24-463): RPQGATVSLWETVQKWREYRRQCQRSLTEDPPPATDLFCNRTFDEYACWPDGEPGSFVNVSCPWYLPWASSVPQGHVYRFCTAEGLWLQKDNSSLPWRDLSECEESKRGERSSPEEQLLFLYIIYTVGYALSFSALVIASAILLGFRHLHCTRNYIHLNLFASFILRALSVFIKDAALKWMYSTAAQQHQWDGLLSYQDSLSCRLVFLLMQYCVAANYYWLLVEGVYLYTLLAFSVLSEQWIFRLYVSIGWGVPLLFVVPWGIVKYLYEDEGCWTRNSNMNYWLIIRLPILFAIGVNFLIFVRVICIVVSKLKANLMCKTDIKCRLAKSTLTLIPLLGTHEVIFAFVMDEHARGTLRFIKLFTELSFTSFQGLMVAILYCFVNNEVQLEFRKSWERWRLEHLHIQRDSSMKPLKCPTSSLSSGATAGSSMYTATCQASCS

B1: Analogue 3 (Example 4, BAP-modified GLP-2 analogue): … (peptide)
peptide: HADGSFSDEMNTILDNLAARDFINWLIQTKITDK
modifications: N-terminal acetyl; Lys-Lys-Ac attached to the epsilon-amino group of the C-terminal Lys34; C-terminal amide
For the molecule B1, in assay [1], the EC50 (nM), cAMP production (HTRF) worked out at 3.4 nM and the Max efficacy in % of control peptide (cAMP production, HTRF) (% of control peptide) worked out at 101.

B2: Analogue 4 (Example 4, BAP-modified GLP-2 analogue): … (peptide)
peptide: HGDGSFSDEMNTILDNLAARDFINWLIQTKITDK
modifications: N-terminal acetyl; Lys-Lys-Ac attached to the epsilon-amino group of the C-terminal Lys34; C-terminal amide
In assay [1], B2 returned an EC50 (nM), cAMP production (HTRF) of 5.9 nM and a Max efficacy in % of control peptide (cAMP production, HTRF) (% of control peptide) of 102.

B3: Analogue 5 (Example 4, BAP-modified GLP-2 analogue): … (peptide)
peptide: HADGSFSDEMNTILDNLAARDFINWLIQTKITDK
modifications: N-terminal acetyl; D-Ala at position 2; Lys-Lys-Ac attached to the epsilon-amino group of the C-terminal Lys34; C-terminal amide
Regarding B3, in assay [1], the EC50 (nM), cAMP production (HTRF) stood at 8.9 nM and the Max efficacy in % of control peptide (cAMP production, HTRF) (% of control peptide) came to 95.1.

As to Ac-HGEGTFTSDVSSYLEGQAAKEFIAWLVKGRGK([Lys-Lys-Ac])-NH2 [Analogue 2 (Example 4, BAP-modified GLP-1 analogue): …], in assay [2], the EC50 (nM), cAMP production (HTRF) is 0.04 nM and the Max efficacy in % of control peptide (cAMP production, HTRF) (% of control peptide) came to 102.

For Ac-AMVSEFLKQ[dA]WFIENEEQEYVQTVKKK([Lys-Ac])-NH2 [Analogue 6 (Example 4, BAP-modified AnxA1 N-terminal fragment): …], the agonist activity, % of the max response of Trp-Lys-Tyr-Met-Val-Met (SEQ ID NO: 114) in assay [3] was determined as 33%.
